Measurements reported in paper doi:10.1101/2025.09.18.677151, “Structure and substrate recognition by the Twin-arginine translocation (Tat) pathway core complex” (bioRxiv, 2025).

Experiments:
[1] = target: the molecule itself; test: cryo-EM structure; M. xanthus TatBC complex purified in GDN; single particle, C3 symmetry
[2] = target: the molecule itself; test: crystal structure; selenomethionine-labelled M. xanthus TatC periplasmic domain; sitting drop, 21 °C; data to 2.0 Å
[3] = target: the molecule itself; test: cryo-EM structure; N. salsuginis TatBC complex purified in GDN; single particle, C3 symmetry
[4] = target: T1, E. coli TatC with a C-terminal strep tag, expressed from the tatABC plasmid (E. coli, UniProt P69423 1-258); test: quantification of Coomassie stained SDS-PAGE bands of the purified complexes; purified E. coli TatABC and TatBC loaded at 4 dilutions; bands quantified with ImageJ; three independent samples; settings: both partners purified
T1 construct: TatC, E. coli; also called TatC_(strep); source: E. coli MC4100 ΔtatABCD ΔtatE, tatABC operon on a low copy number plasmid; in GDN-solubilised membranes, captured on Streptactin XT; not shown: strep tag, C-terminal, kept
T1 sequence: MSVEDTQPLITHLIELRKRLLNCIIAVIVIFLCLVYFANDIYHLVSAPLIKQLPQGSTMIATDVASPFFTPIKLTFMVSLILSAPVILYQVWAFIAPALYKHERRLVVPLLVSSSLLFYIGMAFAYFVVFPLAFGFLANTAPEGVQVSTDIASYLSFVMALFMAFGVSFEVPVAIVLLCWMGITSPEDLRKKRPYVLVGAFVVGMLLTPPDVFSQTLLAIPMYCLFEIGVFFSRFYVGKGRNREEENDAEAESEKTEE

[5] = target: the molecule itself; test: cryo-EM structure; E. coli TatBC complex purified in GDN; single particle, C3 symmetry, 3.1 Å
[6] = target: T2, E. coli TatBC complex (E. coli, UniProt P69425 1-171; P69423 1-258); test: cryo-EM structure; purified MdoD (SUMO removed) mixed with purified E. coli Tat complex in 0.02% GDN overnight at 4°C, SEC; core region 2.4 Å (C3), focused refinement on MdoD 2.1 Å (C2); settings: both partners purified
T2 construct: TatB, E. coli; amplified from E. coli genomic DNA (DSM 1116); TatC, E. coli; also called TatB3C3; (TatBC)3; source: E. coli MC4100 ΔtatABCD ΔtatE, pQE60 based vector, overexpressed; purified in GDN (His-tag resin, SEC); for the pull-down captured from GDN-solubilised membranes on His-tag resin and washed; copies: 3 + 3
T2 sequence 1: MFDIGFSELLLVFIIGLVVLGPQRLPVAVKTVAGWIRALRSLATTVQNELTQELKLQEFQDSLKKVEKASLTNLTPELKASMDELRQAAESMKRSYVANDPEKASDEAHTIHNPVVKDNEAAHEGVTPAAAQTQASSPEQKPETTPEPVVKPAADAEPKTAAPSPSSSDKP
T2 sequence 2: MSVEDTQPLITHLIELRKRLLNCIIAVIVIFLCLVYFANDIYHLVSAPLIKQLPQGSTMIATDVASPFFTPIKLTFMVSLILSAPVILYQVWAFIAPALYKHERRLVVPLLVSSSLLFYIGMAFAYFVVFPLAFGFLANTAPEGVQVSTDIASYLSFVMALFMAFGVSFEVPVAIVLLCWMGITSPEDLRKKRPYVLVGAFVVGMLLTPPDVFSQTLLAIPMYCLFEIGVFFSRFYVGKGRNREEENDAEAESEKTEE

[7] = target: the molecule itself; test: as above

B1: M. xanthus TatC (GFP-His removed) (natural protein, Myxococcus xanthus)
chain: MSLADHLTELRSRLMRCTIAVLILGTISLVFAKPIFGLLMQPVLDALPPENRSLIYTSGIEELNVLMKVGVYCGIFLTTPVILMQIWGFVSPGLYPEERRFAAPFVAFGSIAFLLGAAFCYFAVLPSMFTFLLNEEETLALEQRLDTARLRADDALRFLRLGEAEEAGRIAKETSTQLRAEGQGQAPAPEVAPAASVEMTGRLDGLGRLLDAASVGYGAQSRGVLRQAVEKRVEAVTAYEKKDFAAAAAAMDGSASLLAGIAPTRTEELAGLWRLEKELATAHAAHEAARWTRPMLSMHEQLSLVLLLILAFGIIFELPLVMALLGVVGVVKSSWLFRYQRHAFVVCLIAAAIITPTGDVVNLSLMAGPMLLCYELGVLLVWMVERRRARNSAETGITPAS
notes: TatC, Myxococcus xanthus, with a large periplasmic insert; gene codon-optimised and synthesised; source: E. coli strain L56, pWALDO based pTatC-GFP-His, co-overexpressed with TatB-strep; purified in GDN (Ni-NTA, TEV, Streptactin XT, SEC)
In the case of B1, the “stoichiometry N” value [1] is reported as 3.

B2: M. xanthus TatC periplasmic domain (residues 127-303) (domain or fragment, Myxococcus xanthus, UniProt Q2PHA2 127-303, looked up)
chain: SMFTFLLNEEETLALEQRLDTARLRADDALRFLRLGEAEEAGRIAKETSTQLRAEGQGQAPAPEVAPAASVEMTGRLDGLGRLLDAASVGYGAQSRGVLRQAVEKRVEAVTAYEKKDFAAAAAAMDGSASLLAGIAPTRTEELAGLWRLEKELATAHAAHEAARWTRPMLSMHEQLS
modifications: selenomethionine-labelled
notes: TatC, Myxococcus xanthus, periplasmic domain, residues 127-303; also called M. xanthus insert; M. xanthus periplasmic domain; source: E. coli B834 (DE3), pET15b, purified (Ni-NTA, TEV, SEC)
B2 was tested, and the “stoichiometry N” value [2] was 3.

B3: N. salsuginis TatC (GFP-His removed) (natural protein, Nitratifractor salsuginis)
chain: MFESMKPHLAELRQRLAISVLAVFVGFIIAFTFHNAILGWITKPLNNALIQVGKIVEKREMGTWKISGNEHNATLAPSKSPALLSDHAQSAEKLHRTLAEASQATQNPKLQKLLSQAASAAEELARNSRILRKALVKEENLTRQAVNQNLREKSFNGMITTHQVGGAFFVALKVSFFAGILMAMPVILWQLWLFIAPGLYDNEKKMVLPFVVGGSVMFLIGVLFAYYVVTPFGFQFLITFGSFLYTPLINIEDYVGFFTKILIGFGIAFELPVVAYFLALLGLITDKTLKDYFKYAIVIIFLLAAFLTPPDVLTQLLMAAPLILLYGLSILIVHYVNPYKPEEKEDDEEEEEDEFEKAEREFEALEKGSESHES
notes: TatC, Nitratifractor salsuginis, with a large periplasmic insert; gene codon-optimised and synthesised; source: E. coli strain L56, pWALDO based pTatC-GFP-His, co-overexpressed with TatB-strep or TatA-strep; purified in GDN or digitonin (Ni-NTA, TEV, Streptactin XT, SEC)
For B3, the “stoichiometry N” value [3] was 3.

B4: E. coli TatB expressed from the tatABC plasmid (natural protein)
chain: MFDIGFSELLLVFIIGLVVLGPQRLPVAVKTVAGWIRALRSLATTVQNELTQELKLQEFQDSLKKVEKASLTNLTPELKASMDELRQAAESMKRSYVANDPEKASDEAHTIHNPVVKDNEAAHEGVTPAAAQTQASSPEQKPETTPEPVVKPAADAEPKTAAPSPSSSDKP
notes: TatB, E. coli; source: E. coli MC4100 ΔtatABCD ΔtatE, tatABC operon on a low copy number plasmid; in GDN-solubilised membranes, co-purified
For B4, the “ratio of TatB to TatC in the TatABC complex relative to the TatBC complex” value [4] was 0.78.

B5: E. coli TatB (subunit of the overexpressed TatBC complex) (natural protein)
chain: MFDIGFSELLLVFIIGLVVLGPQRLPVAVKTVAGWIRALRSLATTVQNELTQELKLQEFQDSLKKVEKASLTNLTPELKASMDELRQAAESMKRSYVANDPEKASDEAHTIHNPVVKDNEAAHEGVTPAAAQTQASSPEQKPETTPEPVVKPAADAEPKTAAPSPSSSDKP
notes: TatB, E. coli; amplified from E. coli genomic DNA (DSM 1116); residues 1-63 modelled in the cryo-EM map; source: E. coli MC4100 ΔtatABCD ΔtatE, pQE60 based vector, co-overexpressed with TatC; purified in GDN (His-tag resin, SEC)
B5: binds [5].

B6: E. coli MdoD, full length with its Tat signal peptide (natural protein, UniProt P40120 1-551, looked up)
chain: MDRRRFIKGSMAMAAVCGTSGIASLFSQAAFAADSDIADGQTQRFDFSILQSMAHDLAQTAWRGAPRPLPDTLATMTPQAYNSIQYDAEKSLWHNVENRQLDAQFFHMGMGFRRRVRMFSVDPATHLAREIHFRPELFKYNDAGVDTKQLEGQSDLGFAGFRVFKAPELARRDVVSFLGASYFRAVDDTYQYGLSARGLAIDTYTDSKEEFPDFTAFWFDTVKPGATTFTVYALLDSASITGAYKFTIHCEKSQVIMDVENHLYARKDIKQLGIAPMTSMFSCGTNERRMCDTIHPQIHDSDRLSMWRGNGEWICRPLNNPQKLQFNAYTDNNPKGFGLLQLDRDFSHYQDIMGWYNKRPSLWVEPRNKWGKGTIGLMEIPTTGETLDNIVCFWQPEKAVKAGDEFAFQYRLYWSAQPPVHCPLARVMATRTGMGGFSEGWAPGEHYPEKWARRFAVDFVGGDLKAAAPKGIEPVITLSSGEAKQIEILYIEPIDGYRIQFDWYPTSDSTDPVDMRMYLRCQGDAISETWLYQYFPPAPDKRQYVDDRVMS
notes: MdoD (OpgD), E. coli, precursor with the 32 residue Tat signal peptide; amplified from E. coli genomic DNA (DSM 1116); also called OpgD; source: E. coli BL21 (DE3) ΔtatABCD ΔtatE, pET28a modified, purified (His-tag resin), His6-SUMO removed with Ulp1; not shown: His6-SUMO, N-terminal, cleaved
For B6, the “stoichiometry N” value [6] was 3 and the “stoichiometry N” value [7] was 2.
